Ten molecules from US20160207995A1 (Genentech, published 2016) can be followed below.

Assay [1] concerns the target T1, human IL-13 (human, UniProt P35225 33-146, biotinylated in the IL-13Rα2 competition ELISA).
T1 construct: Made at Genentech; also called biotinylated human IL-13; immobilized IL-13
Briefly: SPR Biacore 3000; antibody captured on anti-human Fc, cytokine 0-50 nM injected, 25 °C, 1:1 Langmuir model.

For assay [2], the target named is T2, human interleukin-4 (IL-4) (human, UniProt P05112 25-153, biotinylated in the competition ELISAs).
T2 construct: Commercial human IL-4 (R&D Systems); also called human IL-4; biotinylated IL-4
T2 sequence: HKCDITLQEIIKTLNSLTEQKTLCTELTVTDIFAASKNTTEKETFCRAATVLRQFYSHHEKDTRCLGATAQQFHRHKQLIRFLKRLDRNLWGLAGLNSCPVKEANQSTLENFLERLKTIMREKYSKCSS
The description is as above.

The target in assay [3] is T1, human IL-13. The assay is described as follows: cell-based or functional assay.
Assay [4] deals with T2, human interleukin-4 (IL-4). The assay is described as follows: cell-based or functional assay.
Assay [5] concerns the target T2, human interleukin-4 (IL-4). The assay is described as follows: competition ELISA: antibody premixed with biotinylated human IL-4 (5.8 ng/ml), then added to plate-coated human IL-4R; streptavidin-HRP, OD 450 nm.
For a further assay, the target named is T3, cynomolgus monkey IL-13 (cynomolgus monkey, UniProt Q5I6E4 19-132 (Macaca thibetana entry), limits assumed).
T3 construct: also called cyno IL-13
T3 chain: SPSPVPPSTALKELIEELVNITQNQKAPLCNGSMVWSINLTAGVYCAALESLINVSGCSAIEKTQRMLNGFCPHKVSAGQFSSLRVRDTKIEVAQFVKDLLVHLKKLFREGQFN
The assay is described as follows: SPR Biacore 3000; antibody captured on anti-human Fc, cytokine 0-50 nM injected, 25 °C, 1:1 Langmuir model. On the technique in general: SPR reads the build-up and loss of mass on a sensor chip optically.

A further assay addresses T4, cynomolgus monkey IL-4 (cynomolgus monkey, UniProt P79339 25-153).
T4 construct: Made at Genentech; also called cyno IL-4
T4 sequence: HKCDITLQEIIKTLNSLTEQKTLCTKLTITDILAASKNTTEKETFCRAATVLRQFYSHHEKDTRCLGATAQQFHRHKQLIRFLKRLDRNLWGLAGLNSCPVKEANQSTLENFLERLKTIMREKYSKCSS
The description is as above.

The target of a further assay is T5, human IL-13 R130Q (human, UniProt P35225 25-146, biotinylated in the IL-13Rα1 competition ELISA).
T5 construct: also called biotinylated IL-13 R130Q
The description is as above.

In assay [6] the target is T1, human IL-13. Briefly: competition ELISA: antibody premixed with biotinylated human IL-13 (0.056 µg/ml), then added to plate-coated human IL-13Rα2-Fc; streptavidin-HRP, OD 450 nm.
The target of assay [7] is T2, human interleukin-4 (IL-4). The assay is described as follows: SPR (BIAcore A100): IgG captured by anti-human Fcγ antibody, recombinant IL-4 injected, 1:1 Langmuir fit.
Assay [8] has as its target T2, human interleukin-4 (IL-4). Briefly: SPR BIAcore A100; IgG captured on anti-human Fcγ, recombinant IL-4 injected, 1:1 model.
Assay [9] deals with T2, human interleukin-4 (IL-4). The assay is described as follows: SPR.
Assay [10] has as its target T2, human interleukin-4 (IL-4). The assay is described as follows: cell-based or functional assay. This is another data set of the same source.

B1: anti-IL-4/IL-13 IgG1 bispecific antibody (knobs-into-holes) (bispecific antibody)
heavy 1: not shown
light 1: DIQMTQSPSSLSASVGDRVTITCKASQSVINDAAWYQQKPGKAPKLLIYYTSHRYTGVPSRFSGSGSGTDFTLTISSLQPEDFATYYCQQDYTSPWTFGQGTKVEIKRTVAAPSVFIFPPSDEQLKSGTASVVCLLNNFYPREAKVQWKVDNALQSGNSQESVTEQDSKDSTYSLSSTLTLSKADYEKHKVYACEVTHQGLSSPVTKSFNRGEC
heavy 2: not shown
light 2: DIVLTQSPDSLSVSLGERATINCRASKSVDSYGNSFMHWYQQKPGQPPKLLIYLASNLESGVPDRFSGSGSGTDFTLTISSLQAEDVAVYYCQQNNEDPRTFGGGTKVEIKRTVAAPSVFIFPPSDEQLKSGTASVVCLLNNFYPREAKVQWKVDNALQSGNSQESVTEQDSKDSTYSLSSTLTLSKADYEKHKVYACEVTHQGLSSPVTKSFNRGEC
notes: Half antibodies made in E. coli (not glycosylated) and assembled by redox chemistry; Anti-IL-4 arm is the hole, anti-IL-13 arm the knob; also called anti-IL-4/IL-13 IgG1-isotype
On to B1, for which, in the assay with human IL-13 [1], binding was characterised by a dissociation constant (Kd) of 23 pM; the koff (as a rule, the first-order rate constant of dissociation) was determined as 1.7e-05 s⁻¹; the association rate constant (kon) (in general, the second-order rate constant of association) was 714000 M⁻¹ s⁻¹. Further, in [2], the Kd (usually the free concentration of one partner at which half of the binding sites on the other are occupied at equilibrium, for simple one-to-one binding) was determined as 68 pM; the off-rate constant (koff) came out at 8.48e-05 s⁻¹; the kon was 1.34e+06 M⁻¹ s⁻¹. Further, the “IC50 of TF-1 proliferation inhibition assay (IL-13)” value with human IL-13 [3] was 0.03 µg/mL. For the same molecule, the “IC50 of TF-1 proliferation inhibition assay (IL-4)” value in [4] is 0.06 µg/mL.

B2: anti-IL-4/IL-13 IgG4 bispecific antibody (knobs-into-holes, S228P, wild-type R409) (bispecific antibody)
heavy 1: EVQLVESGGGLVQPGGSLRLSCAASGYTFTDYSMHWVRQAPGKGLEWVVWINTETGEPTYADSVKGRFTISLDNSKNTAYLQMNSLRAEDTAVYYCARGGIFYGMDYWGQGTLVTVSSASTKGPSVFPLAPCSRSTSESTAALGCLVKDYFPEPVTVSWNSGALTSGVHTFPAVLQSSGLYSLSSVVTVPSSSLGTKTYTCNVDHKPSNTKVDKRVESKYGPPCPPCPAPEFLGGPSVFLFPPKPKDTLMISRTPEVTCVVVDVSQEDPEVQFNWYVDGVEVHNAKTKPREEQFNSTYRVVSVLTVLHQDWLNGKEYKCKVSNKGLPSSIEKTISKAKGQPREPQVYTLPPSQEEMTKNQVSLSCAVKGFYPSDIAVEWESNGQPENNYKTTPPVLDSDGSFFLVSRLTVDKSRWQEGNVFSCSVMHEALHNHYTQKSLSLSLGK
light 1: DIQMTQSPSSLSASVGDRVTITCKASQSVINDAAWYQQKPGKAPKLLIYYTSHRYTGVPSRFSGSGSGTDFTLTISSLQPEDFATYYCQQDYTSPWTFGQGTKVEIKRTVAAPSVFIFPPSDEQLKSGTASVVCLLNNFYPREAKVQWKVDNALQSGNSQESVTEQDSKDSTYSLSSTLTLSKADYEKHKVYACEVTHQGLSSPVTKSFNRGEC
heavy 2: not shown
light 2: DIVLTQSPDSLSVSLGERATINCRASKSVDSYGNSFMHWYQQKPGQPPKLLIYLASNLESGVPDRFSGSGSGTDFTLTISSLQAEDVAVYYCQQNNEDPRTFGGGTKVEIKRTVAAPSVFIFPPSDEQLKSGTASVVCLLNNFYPREAKVQWKVDNALQSGNSQESVTEQDSKDSTYSLSSTLTLSKADYEKHKVYACEVTHQGLSSPVTKSFNRGEC
notes: Half antibodies made in E. coli (not glycosylated) and assembled by redox chemistry; also called anti-IL-4/IL-13 bispecific antibody; anti-IL-4/IL-13 IgG4-isotype
On to B2, for which the “IC50 (read off the curve)” value (in assay [5]; with human IL-13 [6]) was roughly 0.2 µg/mL throughout. Also, the Kd with human IL-13 [1] came out at 56 pM; in the assay with cynomolgus monkey IL-13, 48 pM; in assay [2], 46 pM; with cynomolgus monkey IL-4, 76 pM; with human IL-13 R130Q, 142 pM. In addition, the koff in the assay with human IL-13 [1] turned out to be 3.01e-05 s⁻¹; with cynomolgus monkey IL-13 it was 2.83e-05 s⁻¹; in assay [2] it was 0.000133 s⁻¹; in the assay with cynomolgus monkey IL-4, 0.000151 s⁻¹; in the assay with human IL-13 R130Q it was 2.62e-05 s⁻¹. The kon with human IL-13 [1] came out at 537000 M⁻¹ s⁻¹; with cynomolgus monkey IL-13 it was 608000 M⁻¹ s⁻¹; in assay [2], 2.87e+06 M⁻¹ s⁻¹; in the assay with cynomolgus monkey IL-4, 2.02e+06 M⁻¹ s⁻¹; with human IL-13 R130Q, 184000 M⁻¹ s⁻¹. In the assay with human IL-13 [3], the “IC50 of TF-1 proliferation inhibition assay (IL-13)” value was 0.03 µg/mL. Also, in assay [4], the “IC50 of TF-1 proliferation inhibition assay (IL-4)” value worked out at 0.05 µg/mL.

B3: HuVHI / HuKI (antibody, V domains shown)
VH: QVQLVQSGAEVKKPGASVKVSCKASGYTFTDYSMHWVRQAPGQGLEWMVWINTETGEPTYADDFKGRVTITRDTSTSTAYLELSSLRSEDTAVYYCARGGIFYGMDYWGQGTLVTVSS
VL: DIQMTQSPSSLSASVGDRVTITCKASQSVINDAAWYQQKPGKAPKLLIYYTSHRYTGVPSRFSGSGSGTDFTLTISSLQPEDFATYYCQQDYTSPWTFGQGTKVEIKR
notes: also called humanized 19C11-VH1 graft/κ1 graft
For the molecule B3, the Kd in assay [7] stood at 24 pM.

B4: humanized 19C11-VH1.FFL/κ3 graft (antibody, V domains shown)
VH: QVQLVQSGAEVKKPGASVKVSCKASGYTFTDYSMHWVRQAPGQGLEWMVWINTETGEPTYADDFKGRFTFTLDTSTSTAYLELSSLRSEDTAVYYCARGGIFYGMDYWGQGTLVTVSS
VL: EIVLTQSPATLSLSPGERATLSCKASQSVINDAAWYQQKPGQAPRLLIYYTSHRYTGIPARFSGSGSGTDFTLTISSLEPEDFAVYYCQQDYTSPWTFGQGTKVEIKR
notes: Human IgG expressed in 293 cells; also called 19C11-VH1.FFL with 19C11-κ3 graft
B4: the Kd in [8] was 11 pM.

B5: HuVHIII / HuKI (antibody, V domains shown)
VH: EVQLVESGGGLVQPGGSLRLSCAASGYTFTDYSMHWVRQAPGKGLEWVVWINTETGEPTYADDFKGRFTISRDNSKNTLYLQMNSLRAEDTAVYYCARGGIFYGMDYWGQGTLVTVSS
VL: DIQMTQSPSSLSASVGDRVTITCKASQSVINDAAWYQQKPGKAPKLLIYYTSHRYTGVPSRFSGSGSGTDFTLTISSLQPEDFATYYCQQDYTSPWTFGQGTKVEIKR
notes: also called humanized 19C11-VH3 graft/κ1 graft
Regarding B5, the Kd in assay [7] was found to be 84 pM.

B6: HuVHIII (FLA) / HuKI (antibody, V domains shown)
VH: EVQLVESGGGLVQPGGSLRLSCAASGYTFTDYSMHWVRQAPGKGLEWVVWINTETGEPTYADDFKGRFTFSLDNSKNTAYLQMNSLRAEDTAVYYCARGGIFYGMDYWGQGTLVTVSS
VL: DIQMTQSPSSLSASVGDRVTITCKASQSVINDAAWYQQKPGKAPKLLIYYTSHRYTGVPSRFSGSGSGTDFTLTISSLQPEDFATYYCQQDYTSPWTFGQGTKVEIKR
notes: also called humanized 19C11-VH3.FLA/κ1 graft
For the molecule B6, the dissociation constant (Kd) in assay [7] turned out to be 140 pM.

B7: HuVHIII / HuKIII (antibody, V domains shown)
VH: EVQLVESGGGLVQPGGSLRLSCAASGYTFTDYSMHWVRQAPGKGLEWVVWINTETGEPTYADDFKGRFTISRDNSKNTLYLQMNSLRAEDTAVYYCARGGIFYGMDYWGQGTLVTVSS
VL: EIVLTQSPATLSLSPGERATLSCKASQSVINDAAWYQQKPGQAPRLLIYYTSHRYTGIPARFSGSGSGTDFTLTISSLEPEDFAVYYCQQDYTSPWTFGQGTKVEIKR
notes: also called humanized 19C11-VH3 graft/κ3 graft
Take B7: the Kd in [7] was 26 pM.

B8: humanized 19C11-VH3.FLA/κ3 graft (antibody, V domains shown)
VH: EVQLVESGGGLVQPGGSLRLSCAASGYTFTDYSMHWVRQAPGKGLEWVVWINTETGEPTYADDFKGRFTFSLDNSKNTAYLQMNSLRAEDTAVYYCARGGIFYGMDYWGQGTLVTVSS
VL: EIVLTQSPATLSLSPGERATLSCKASQSVINDAAWYQQKPGQAPRLLIYYTSHRYTGIPARFSGSGSGTDFTLTISSLEPEDFAVYYCQQDYTSPWTFGQGTKVEIKR
notes: Human IgG expressed in 293 cells; also called 19C11-VH3.FLA with 19C11-κ3 graft
Turning to B8, the Kd in assay [8] turned out to be 11 pM.

B9: mu19C11 (clone 19C11, murine anti-human IL-4 monoclonal antibody) (antibody, V domains shown)
VH: QIQLVQSGPELKKPGETVKISCKASGYTFTDYSMHWMKQAPGKGLKWMVWINTETGEPTYADDFKGRFAFSLETSANTAYLKINNLKNEDTATYFCARGGIFYGMDYWGQGTSVTVSS
VL: SIVMTQTPKFLLISAGDRVTITCKASQSVINDAAWYQQKPGQSPRLLIYYTSHRYTGVPDRFTGSGYGTDFTFTISTVQAEDLAVYFCQQDYTSPWTFGGGTKLEIKR
notes: Mouse hybridoma IgG (BALB/c); Tested as hybridoma supernatant IgG or purified IgG
In [9], B9 showed an equilibrium dissociation constant (Kd) of no more than 10 pM. In addition, the “IC50 for blocking IL-4-induced proliferation of TF-1 cells” value in assay [10] is 0.014 µg/mL.

B10: 19C11 Chimera (antibody, V domains shown)
VH: QIQLVQSGPELKKPGETVKISCKASGYTFTDYSMHWMKQAPGKGLKWMVWINTETGEPTYADDFKGRFAFSLETSANTAYLKINNLKNEDTATYFCARGGIFYGMDYWGQGTSVTVSS
VL: SIVMTQTPKFLLISAGDRVTITCKASQSVINDAAWYQQKPGQSPRLLIYYTSHRYTGVPDRFTGSGYGTDFTFTISTVQAEDLAVYFCQQDYTSPWTFGGGTKLEIKR
notes: also called chimeric 19C11 (mouse variable regions with human IgG constant regions)
In the case of B10, the Kd in [7] is less than 10 pM.
